According to IntAct's records for PubMed 16096059:

B1: Tethering factor for nuclear proteasome cut8 (Schizosaccharomyces pombe (strain ATCC 38366 / 972)), P38937 (parent)
chain: METLSYSQIKKRKADFDEDISKRARQLPVGEQLPLSRLLQYSDKQQLFTILLQCVEKHPDLARDIRGILPAPSMDTCVETLRKLLINLNDSFPYGGDKRGDYAFNRIREKYMAVLHALNDMVPCYLPPYSTCFEKNITFLDAATNVVHELPEFHNPNHNVYKSQAYYELTGAWLVVLRQLEDRPVVPLLPLEELEEHNKTSQNRMEEALNYLKQLQKNEPLVHERSHTFQQTNPQNNFHRHTNSMNIGNDNGMGWHSMHQYI
partner: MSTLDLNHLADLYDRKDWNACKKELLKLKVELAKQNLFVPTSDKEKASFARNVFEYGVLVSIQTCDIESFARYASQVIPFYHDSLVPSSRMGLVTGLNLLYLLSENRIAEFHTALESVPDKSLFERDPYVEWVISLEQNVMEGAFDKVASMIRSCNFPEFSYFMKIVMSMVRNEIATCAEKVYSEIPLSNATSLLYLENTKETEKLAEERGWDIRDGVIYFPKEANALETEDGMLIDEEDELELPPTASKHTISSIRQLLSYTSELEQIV
B2: Tethering factor for nuclear proteasome cut8 (Schizosaccharomyces pombe (strain ATCC 38366 / 972)), P38937 (parent)
chain: B1 chain
partner: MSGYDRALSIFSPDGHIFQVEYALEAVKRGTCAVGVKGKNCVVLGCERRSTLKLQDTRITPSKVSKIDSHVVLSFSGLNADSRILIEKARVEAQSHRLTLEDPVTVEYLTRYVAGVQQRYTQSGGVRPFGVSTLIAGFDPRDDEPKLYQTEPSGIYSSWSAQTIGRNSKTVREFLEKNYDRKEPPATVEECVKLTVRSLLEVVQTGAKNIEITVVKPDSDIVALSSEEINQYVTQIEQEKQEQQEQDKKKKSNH

Variants of: B1
Settings: with rpn12_schpo rpn12, P50524

Variant	effect of a mutation on the interaction
METLSYSQIRRRRADFDEDISRRARQLPVGEQLPLSRLLQYSDRQQLFTILLQCVERHPDLARDIRGILPAPSMDTCVETLRKLLINLNDSFPYGGDKRGDYAFNRIREKYMAVLHALNDMVPCYLPPYSTCFEKNITFLDAATNVVHELPEFHNPNHNVYKSQAYYELTGAWLVVLRQLEDRPVVPLLPLEELEEHNKTSQNRMEEALNYLKQLQKNEPLVHERSHTFQQTNPQNNFHRHTNSMNIGNDNGMGWHSMHQYI [K10R;K11R;K13R;K22R;K44R;K57R]	decreasing interaction

Variants of: B2
Settings: with psa4_yeast PRE6, P40303

Variant	effect of a mutation on the interaction
METLSYSQIRRRRADFDEDISRRARQLPVGEQLPLSRLLQYSDRQQLFTILLQCVERHPDLARDIRGILPAPSMDTCVETLRKLLINLNDSFPYGGDKRGDYAFNRIREKYMAVLHALNDMVPCYLPPYSTCFEKNITFLDAATNVVHELPEFHNPNHNVYKSQAYYELTGAWLVVLRQLEDRPVVPLLPLEELEEHNKTSQNRMEEALNYLKQLQKNEPLVHERSHTFQQTNPQNNFHRHTNSMNIGNDNGMGWHSMHQYI [K10R;K11R;K13R;K22R;K44R;K57R]	decreasing interaction
